# B1: VHH A (C5) (VHH)
# VHH: EVQLVESGGGVVQPGGSLKLSCVASGTDFSINFIRWYRQAPGKQREFVAGFTATGNTNYADSMKGRFTISRDNTKNAVYLQIDSLKPEDTAVYYCYMLDKWGQGTQVTVSS
# notes: form with the C-terminal myc-His6 tag (x = 1), since the VHHs were detected with anti-6His or anti-cMyc; the same holds for m12 to m126
# Assays:
# [1] = biological target: T1, human transferrin receptor (hTfR) fused to EGFP, on CHO cells (human, UniProt P02786 1-760); assay: flow cytometry on CHO-hTfR-EGFP cells, 1 hr at 4 C, anti-6His + Alexa647 anti-mouse; ratio to background fluorescence
# T1 construct: whole, on cells; also called human TfR; CHO-hTfR-EGFP; not shown: EGFP from pEGFP-C1 vector, fused to the N-terminal (intracellular) end of hTfR
# T1 sequence (P02786 whole entry, the tested form may be a part): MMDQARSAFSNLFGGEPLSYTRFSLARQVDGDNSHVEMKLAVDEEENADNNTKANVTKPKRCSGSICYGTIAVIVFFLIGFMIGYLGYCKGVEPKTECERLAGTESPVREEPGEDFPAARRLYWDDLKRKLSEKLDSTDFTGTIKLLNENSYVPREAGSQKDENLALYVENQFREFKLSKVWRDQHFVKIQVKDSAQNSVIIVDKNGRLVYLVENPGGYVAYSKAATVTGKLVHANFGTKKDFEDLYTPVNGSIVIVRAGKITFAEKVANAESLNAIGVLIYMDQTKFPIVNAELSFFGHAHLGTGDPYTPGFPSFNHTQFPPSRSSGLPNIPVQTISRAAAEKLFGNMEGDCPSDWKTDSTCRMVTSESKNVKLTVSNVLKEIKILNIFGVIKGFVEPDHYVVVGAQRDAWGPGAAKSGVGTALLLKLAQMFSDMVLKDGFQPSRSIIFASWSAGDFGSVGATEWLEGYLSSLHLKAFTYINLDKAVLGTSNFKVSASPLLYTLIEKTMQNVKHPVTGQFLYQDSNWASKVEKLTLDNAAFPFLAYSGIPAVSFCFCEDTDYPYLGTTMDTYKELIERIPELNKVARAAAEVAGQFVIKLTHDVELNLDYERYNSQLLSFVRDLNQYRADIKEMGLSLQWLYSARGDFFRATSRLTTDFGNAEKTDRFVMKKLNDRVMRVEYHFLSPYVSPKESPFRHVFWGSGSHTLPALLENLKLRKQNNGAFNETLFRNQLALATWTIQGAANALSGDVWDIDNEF
# [2] = biological target: T2, mouse transferrin receptor (mTfR) fused to EGFP, on CHO cells (mouse, UniProt Q62351 1-763); assay: apparent Kd, flow cytometry, CHO cells
# T2 construct: whole, on cells; also called mouse TfR; CHO-mTfR-EGFP; not shown: EGFP
# T2 sequence (Q62351 whole entry, the tested form may be a part): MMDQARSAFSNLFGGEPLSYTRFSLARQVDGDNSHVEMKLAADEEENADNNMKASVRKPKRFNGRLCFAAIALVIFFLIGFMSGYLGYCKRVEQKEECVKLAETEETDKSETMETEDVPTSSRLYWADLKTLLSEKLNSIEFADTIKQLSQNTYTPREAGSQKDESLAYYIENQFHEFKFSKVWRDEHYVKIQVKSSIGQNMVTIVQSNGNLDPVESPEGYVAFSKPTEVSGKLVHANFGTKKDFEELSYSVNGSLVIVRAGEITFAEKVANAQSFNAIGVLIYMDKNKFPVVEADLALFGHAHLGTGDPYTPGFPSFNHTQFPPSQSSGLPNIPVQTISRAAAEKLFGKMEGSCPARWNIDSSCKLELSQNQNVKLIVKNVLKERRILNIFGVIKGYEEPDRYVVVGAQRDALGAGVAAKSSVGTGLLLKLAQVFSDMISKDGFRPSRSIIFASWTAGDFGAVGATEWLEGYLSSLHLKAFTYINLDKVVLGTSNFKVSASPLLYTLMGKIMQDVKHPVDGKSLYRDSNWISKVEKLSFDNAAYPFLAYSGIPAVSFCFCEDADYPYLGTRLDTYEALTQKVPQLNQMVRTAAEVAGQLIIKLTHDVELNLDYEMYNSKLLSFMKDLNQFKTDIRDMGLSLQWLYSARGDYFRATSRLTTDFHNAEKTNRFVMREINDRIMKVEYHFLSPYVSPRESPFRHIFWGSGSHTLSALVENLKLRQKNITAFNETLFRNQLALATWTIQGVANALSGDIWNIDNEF
# Procedure, shortened: (§1)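 CHO cells expressing TfR-EGFP fusions, blocked in PBS/BSA 2%, then incubated with increasing VHH concentrations for 1 hr at 4° C. Bound VHH detected via anti-6His antibody and Alexa647 secondary, cells PFA-fixed, read by flow cytometry. Apparent Kd from nonlinear fit.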
# [3] = biological target: T1, human transferrin receptor (hTfR) fused …; assay: apparent Kd, flow cytometry, CHO cells
# Procedure, shortened: as §1
# [4] = biological target: T3, rhesus monkey transferrin receptor (rhTfR) fused to EGFP, on CHO cells (rhesus monkey); assay: apparent Kd, flow cytometry, CHO cells
# T3 construct: whole, on cells; also called rhesus monkey TfR
# Procedure, shortened: as §1
# [5] = biological target: T4, mouse TfR ectodomain fused to a mouse IgG1 Fc fragment (mouse, UniProt Q62351 89-763); assay: SPR, kinetic
# T4 construct: extracellular domain; not shown: mouse IgG1 Fc fragment
# T4 sequence (Q62351 89-763): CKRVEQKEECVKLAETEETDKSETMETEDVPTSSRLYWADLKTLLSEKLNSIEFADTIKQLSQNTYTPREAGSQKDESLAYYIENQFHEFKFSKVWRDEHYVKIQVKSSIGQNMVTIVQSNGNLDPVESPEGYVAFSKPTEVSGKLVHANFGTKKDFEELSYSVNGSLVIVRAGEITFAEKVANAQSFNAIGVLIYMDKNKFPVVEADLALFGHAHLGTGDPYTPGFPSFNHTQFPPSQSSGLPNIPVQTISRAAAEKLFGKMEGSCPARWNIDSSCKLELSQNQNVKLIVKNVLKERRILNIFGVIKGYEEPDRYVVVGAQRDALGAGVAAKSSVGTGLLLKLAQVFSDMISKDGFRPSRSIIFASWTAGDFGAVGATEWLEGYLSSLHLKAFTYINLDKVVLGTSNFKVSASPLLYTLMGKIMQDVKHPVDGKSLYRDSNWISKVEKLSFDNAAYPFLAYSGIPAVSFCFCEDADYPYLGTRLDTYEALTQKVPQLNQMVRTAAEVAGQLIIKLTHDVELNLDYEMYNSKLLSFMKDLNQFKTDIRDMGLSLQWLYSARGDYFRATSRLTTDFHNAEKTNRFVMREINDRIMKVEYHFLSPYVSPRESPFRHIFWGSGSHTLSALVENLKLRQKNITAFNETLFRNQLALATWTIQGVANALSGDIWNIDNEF
# Procedure, shortened: (§2)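 TfR–mouse Fc fusions, produced in-house, captured on HC 1500M or CM5 chips either directly or via immobilized anti-mouse IgG. VHHs injected in single-cycle or multiple-cycle kinetic mode on Biacore T200.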
# [6] = biological target: T5, rhesus monkey TfR ectodomain fused to a mouse IgG1 Fc fragment (rhesus monkey, UniProt I0FKY7 89-760); assay: SPR, kinetic
# T5 construct: extracellular domain; not shown: mouse IgG1 Fc fragment
# Procedure, shortened: as §2
# [7] = biological target: T6, human TfR ectodomain fused to a mouse IgG1 Fc fragment (human, UniProt P02786 89-760); assay: SPR, kinetic
# T6 construct: extracellular domain; ectodomain fused to the N-terminal end of the Fc, made in-house; not shown: mouse IgG1 Fc fragment
# T6 sequence (P02786 89-760): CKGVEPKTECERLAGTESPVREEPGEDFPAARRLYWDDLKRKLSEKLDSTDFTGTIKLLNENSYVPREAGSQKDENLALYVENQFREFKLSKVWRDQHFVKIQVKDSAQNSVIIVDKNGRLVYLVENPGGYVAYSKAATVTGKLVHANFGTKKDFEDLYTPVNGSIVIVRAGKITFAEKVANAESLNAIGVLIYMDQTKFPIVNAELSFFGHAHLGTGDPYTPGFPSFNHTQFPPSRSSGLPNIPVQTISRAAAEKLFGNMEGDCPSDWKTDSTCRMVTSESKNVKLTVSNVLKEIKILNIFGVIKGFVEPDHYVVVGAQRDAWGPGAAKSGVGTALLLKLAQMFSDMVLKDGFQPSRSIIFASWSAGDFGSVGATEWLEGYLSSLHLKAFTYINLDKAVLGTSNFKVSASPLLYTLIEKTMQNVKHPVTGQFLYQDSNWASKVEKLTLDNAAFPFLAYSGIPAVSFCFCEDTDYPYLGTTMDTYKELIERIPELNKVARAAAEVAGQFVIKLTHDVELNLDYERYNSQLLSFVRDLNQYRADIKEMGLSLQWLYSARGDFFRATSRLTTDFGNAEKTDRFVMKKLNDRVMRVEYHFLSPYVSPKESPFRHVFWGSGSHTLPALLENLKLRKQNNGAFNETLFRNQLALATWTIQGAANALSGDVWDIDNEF
# Procedure, shortened: as §2
# [8] = biological target: T1, human transferrin receptor (hTfR) fused …; assay: competition flow cytometry on CHO-hTfR-EGFP cells, 4 C; VHH competitor in dilution series, phage-C5 tracer at EC80, anti-M13-A647
# Description: FIGS. 17A-17D: Competition assays between VHHs and phage-VHHs. CHO-hTfR-EGFP cells were incubated 1 hr at 4° C. with VHHs (competitors) at increasing concentrations. Phage-VHHs (tracers) were then added at EC80 and incubated for 1 more hr. Phage-VHHs were detected with an anti-M13-A647 antibody (1/200). Fluorescence levels were assessed using flow cytometry. The ratio of fluorescence intensity for each point was normalized with the corresponding EGFP signal (receptor expression) and gave rise to the arbitrary unit. Data are presented as mean±SEM of independent experiments.
# To evaluate whether selected VHHs compete one with the other for binding to the TfR receptor, competition assays using flow cytometry experiments were performed. All experiments were performed in 96 well plates using 2×10⁵ cells/well, at 4° C. with shaking. CHO cell line expressing the hTfR fused to EGFP was saturated with PBS/BSA 2% solution during 30 min to avoid nonspecific binding, followed by incubation with VHH (competitors) at increasing concentrations for 1 hr. Then, phage-VHHs (tracers) at EC80 were added and incubated 1 hr more. To detect the phage-VHHs, cells were washed twice with PBS/BSA 2% and incubated for 1 hr with an Alexa647-conjugated anti-M13 antibody. […] Fluorescence levels were assessed using an Attune NxT flow cytometer (Thermo Fisher Scientific). […]
binder,measurement,setting,value
B1,EC50 (read off the curve),[1],~5 nM
same,Kd,[2],50 nM
same,Kd,[3],2.7 nM
same,Kd,[4],4.9 nM
same,Kd,[5],88.5 nM
same,koff,[5],0.0447 s⁻¹
same,kon,[5],915000 M⁻¹ s⁻¹
same,Kd,[6],5.35 nM
same,koff,[6],0.00774 s⁻¹
same,kon,[6],1.55e+06 M⁻¹ s⁻¹
same,Kd,[7],0.206 nM
same,koff,[7],0.000179 s⁻¹
same,kon,[7],665000 M⁻¹ s⁻¹
same,IC50 (read off the curve),[8],~50 nM

# Reference: US20230414780A1 (VECT HORUS, published 2023)
